Test results taken from patent US7658917 (PRAECIS PHARMACEUTICALS, dated 2010).
Read-outs that look alike come from different tables or passages of the source. Values belong to the binder of their own block, whether it stands above or below them. Ends that are not written are not given here. * marks the point of attachment. Cholyl = C[C@H](CCC(=O)*)[C@H]1CC[C@H]2[C@@H]3[C@H](O)C[C@@H]4C[C@H](O)CC[C@]4(C)[C@H]3C[C@H](O)[C@]12C

What was measured:
Test in all cases: cell-based or functional assay
[1] = biological target: natural β-amyloid peptide β-AP1-40 (human)
[2] = biological target: natural β-amyloid peptide β-AP1-40 (human); remark: listed apart in the source
Target sequence in this assay (peptide, as listed by the source): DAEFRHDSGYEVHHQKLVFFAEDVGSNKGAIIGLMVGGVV

[3] = biological target: natural β-amyloid peptide β-AP1-40 (human); remark: listed apart in the source
[4] = biological target: natural β-amyloid peptide β-AP1-40 (human); remark: listed apart in the source
Target sequence in this assay (peptide, as listed by the source): as above

[5] = biological target: natural β-amyloid peptide β-AP1-40 (human); remark: listed apart in the source

B1: cholyl-Aβ6-10-amide (peptide)
peptide: Cholyl-HDSGY-NH2
SMILES: C[C@H](CCC(=O)N[C@@H](Cc1c[nH]cn1)C(=O)N[C@@H](CC(=O)O)C(=O)N[C@@H](CO)C(=O)NCC(=O)N[C@@H](Cc1ccc(O)cc1)C(N)=O)[C@H]1CC[C@H]2[C@@H]3[C@H](O)C[C@@H]4C[C@H](O)CC[C@]4(C)[C@H]3C[C@H](O)[C@]12C
- % Inhibition of Plateau; nucleation assay; 33 mole % [1]: 13%
- Fold Increase in Lag Time; nucleation assay; 33 mole % [1]: 1.1 fold
- % Inucl'n; nucleation assay; 100 mole % [2]: -18%
- ΔLag; nucleation assay; 100 mole % [2]: 1.1 ratio

Binder: Cholyl-HDSGYEVHHQKLVFF [cholyl-Aβ6-20]
- % Inhibition of Plateau; nucleation assay; 100 mole % [4]: 100%
- Fold Increase in Lag Time; nucleation assay; 100 mole % [4]: > 4.5 fold
- % Inhibition of Plateau; nucleation assay; 10 mole % [5]: 43%
- Fold Increase in Lag Time; nucleation assay; 10 mole % [5]: 2 fold
- % Inhibition of Plateau; nucleation assay; 100 mole % [1]: 100%
- Fold Increase in Lag Time; nucleation assay; 10 mole % [1]: 2 fold
- Fold Increase in Lag Time; nucleation assay; 100 mole % [1]: > 4.5 fold

Binder: Cholyl-HHQKLVFF [cholyl-Aβ13-20]
- % Inhibition of Plateau; nucleation assay; 10 mole % [5]: 57%
- Fold Increase in Lag Time; nucleation assay; 10 mole % [5]: 2.2 fold
- % Inhibition of Plateau; nucleation assay; 33 mole % [1]: ~0%
- Fold Increase in Lag Time; nucleation assay; 33 mole % [1]: 2.6 fold

B3: cholyl-Aβ14-20 (peptide)
peptide: Cholyl-HQKLVFF-OH
SMILES: CC(C)C[C@H](NC(=O)[C@H](CCCCN)NC(=O)[C@H](CCC(N)=O)NC(=O)[C@H](Cc1c[nH]cn1)NC(=O)CC[C@@H](C)[C@H]1CC[C@H]2[C@@H]3[C@H](O)C[C@@H]4C[C@H](O)CC[C@]4(C)[C@H]3C[C@H](O)[C@]12C)C(=O)N[C@H](C(=O)N[C@@H](Cc1ccccc1)C(=O)N[C@@H](Cc1ccccc1)C(=O)O)C(C)C
- % Inhibition of Plateau; nucleation assay; 33 mole % [1]: 49%
- Fold Increase in Lag Time; nucleation assay; 33 mole % [1]: 2 fold
- % Inucl'n; nucleation assay; 33 mole % [2]: 70%
- ΔLag; nucleation assay; 33 mole % [2]: 2 ratio

Second part, the binder after the results:

- % Inhibition of Plateau; nucleation assay; 100 mole % [3]: 76%
- Fold Increase in Lag Time; nucleation assay; 100 mole % [3]: 1.66 fold
Binder: HDSGYEVHHQKLVFF [unmodified Aβ6-20]

- % Inhibition of Plateau; nucleation assay; 100 mole % [3]: ~0%
- Fold Increase in Lag Time; nucleation assay; 100 mole % [3]: ~1 fold
Binder: AEDVGSNKGAIIGLM [unmodified Aβ21-35]

- % Inhibition of Plateau; nucleation assay; 100 mole % [3]: 47%
- Fold Increase in Lag Time; nucleation assay; 100 mole % [3]: ~1 fold
Binder: EVHHQKLVFFAEDVG [unmodified Aβ11-25]

- % Inhibition of Plateau; nucleation assay; 10 mole % [5]: ~0%
- % Inhibition of Plateau; nucleation assay; 100 mole % [5]: 100%
- Fold Increase in Lag Time; nucleation assay; 10 mole % [5]: 2.1 fold
- Fold Increase in Lag Time; nucleation assay; 33 mole % [5]: 2.6 fold
- Fold Increase in Lag Time; nucleation assay; 100 mole % [5]: > 5 fold
- % Inhibition of Plateau; nucleation assay; 33 mole % [1]: 50%
- Fold Increase in Lag Time; nucleation assay; 33 mole % [1]: 2.3 fold
- % Iext'n; seeded extension assay; 25 mole % [2]: 56%
- % Inucl'n; nucleation assay; 100 mole % [2]: 100%
- ΔLag; nucleation assay; 100 mole % [2]: > 5 ratio
B2: cholyl-Aβ15-20 (peptide)
peptide: Cholyl-QKLVFF-OH
SMILES: CC(C)C[C@H](NC(=O)[C@H](CCCCN)NC(=O)[C@H](CCC(N)=O)NC(=O)CC[C@@H](C)[C@H]1CC[C@H]2[C@@H]3[C@H](O)C[C@@H]4C[C@H](O)CC[C@]4(C)[C@H]3C[C@H](O)[C@]12C)C(=O)N[C@H](C(=O)N[C@@H](Cc1ccccc1)C(=O)N[C@@H](Cc1ccccc1)C(=O)O)C(C)C

- % Inhibition of Plateau; nucleation assay; 100 mole % [3]: 100%
- Fold Increase in Lag Time; nucleation assay; 100 mole % [3]: > 4.5 fold
Binder: KLVFFAEDVGSNKGA [unmodified Aβ16-30]

- % Inhibition of Plateau; nucleation assay; 10 mole % [5]: 40%
- % Inhibition of Plateau; nucleation assay; 100 mole % [5]: 100%
- Fold Increase in Lag Time; nucleation assay; 10 mole % [5]: 2.4 fold
- Fold Increase in Lag Time; nucleation assay; 100 mole % [5]: > 5 fold
- Fold Increase in Lag Time; nucleation assay; 38 mole % [1]: 3.4 fold
- % Iext'n; seeded extension assay; 25 mole % [2]: 11%
- % Inucl'n; nucleation assay; 100 mole % [2]: 72%
- ΔLag; nucleation assay; 100 mole % [2]: 1.8 ratio
Binder: Cholyl-KLVFF-OH [cholyl-Aβ16-20]
